US20250000946A1 (WUXI BIOLOGICS IRELAND, published 2025)
Read-outs that look alike come from different tables or passages of the source.

How the values were obtained:
[1] = molecular target: T1, Human IL-2Rβ/γ (intermediate affinity IL-2 receptor) (human, UniProt P14784 27-551; P31785 23-369); assay: FACS, HH cells
T1 construct: whole, on cells; also called IL-2Rβ/γc; IL-2Rβ (CD122) and γ (CD132)
T1 sequence (looked up) 1: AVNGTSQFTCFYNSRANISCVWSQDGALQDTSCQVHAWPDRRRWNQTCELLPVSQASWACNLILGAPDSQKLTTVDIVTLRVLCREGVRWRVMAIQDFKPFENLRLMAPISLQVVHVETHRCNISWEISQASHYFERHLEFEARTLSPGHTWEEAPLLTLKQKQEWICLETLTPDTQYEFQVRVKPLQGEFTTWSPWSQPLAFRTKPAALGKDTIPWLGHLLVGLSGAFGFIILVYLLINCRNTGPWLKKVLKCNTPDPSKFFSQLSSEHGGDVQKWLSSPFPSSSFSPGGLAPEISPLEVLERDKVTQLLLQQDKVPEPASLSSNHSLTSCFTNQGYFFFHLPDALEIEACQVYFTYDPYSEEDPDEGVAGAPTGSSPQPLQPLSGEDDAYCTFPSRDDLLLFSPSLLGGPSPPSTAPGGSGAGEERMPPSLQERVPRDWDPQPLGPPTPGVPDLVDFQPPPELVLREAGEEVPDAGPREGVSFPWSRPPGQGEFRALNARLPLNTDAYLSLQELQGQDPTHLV
T1 sequence (looked up) 2: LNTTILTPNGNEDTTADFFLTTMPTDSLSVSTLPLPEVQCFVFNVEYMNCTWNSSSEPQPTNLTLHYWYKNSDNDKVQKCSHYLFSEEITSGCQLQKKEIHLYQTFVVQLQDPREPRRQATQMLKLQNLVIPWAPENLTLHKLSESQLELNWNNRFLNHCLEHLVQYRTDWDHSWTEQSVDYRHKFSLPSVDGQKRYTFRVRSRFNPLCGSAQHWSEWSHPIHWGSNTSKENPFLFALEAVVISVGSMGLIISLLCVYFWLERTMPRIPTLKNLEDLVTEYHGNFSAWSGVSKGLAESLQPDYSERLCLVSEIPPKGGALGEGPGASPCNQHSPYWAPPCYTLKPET
In short: (§1)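 Cells: HH (IL-2Rβ/γ), NK92 and MJ20 (IL-2Rα/β/γ). 30 min 4° C. with IL-2/Fc at indicated concentrations; PE-anti-human Fc 30 min 4° C.; FACS MFI.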

[2] = molecular target: T1, Human IL-2Rβ/γ (intermediate affinity …); assay: FACS, HH cells; remark: listed apart in the source
Description: (§2) Human cutaneous T cell lymphoma HH cells, malignant non-Hodgkin's lymphoma NK92 cells and cutaneous T cell lymphoma MJ20 cells were used for binding assay. They both constitutively express IL-2Rβ (CD122) and […] (CD132), and NK92 and MJ20 also expresses IL-2Rα (CD25). HH, NK92 and MJ20 cells were cultured following ATCC guidance, then transferred to a 96-plate for binding analysis. Cells were incubated with IL-2/Fc fusion proteins at the indicated concentrations for 30 min at 4° C. to avoid internalization. Binding was detected by 2nd antibody of PE-anti-human Fc at 4° C. for another 30 min. The median fluorescence intensity (MFI) on HH and NK92 cells was measured using FACS.
(§3) IL-2 variants of T2U0.E44-6 and T2U0.E44-26 were used to construct bivalent variants W3XX115-T2.Z20-1.uIgG4V322 and W3XX115-T2.Z20-2.uIgG4V322 respectively.

[3] = molecular target: T1, Human IL-2Rβ/γ (intermediate affinity …); assay: FACS, HH cells; EC50 fold vs T2U0.E44-1
In short: as §1

[4] = molecular target: T2, W369-hPro1.ECD.His, IL-2Rγ ECD (human, UniProt P31785 23-254); assay: SPR Biacore 8K; variant pre-mixed 1:1 with IL-2Rβ ECD-His, injected over captured IL-2Rγ ECD-His
T2 construct: Entry includes linker and C-terminal 6xHis tag; also called IL-2Rγc; CD132
T2 sequence: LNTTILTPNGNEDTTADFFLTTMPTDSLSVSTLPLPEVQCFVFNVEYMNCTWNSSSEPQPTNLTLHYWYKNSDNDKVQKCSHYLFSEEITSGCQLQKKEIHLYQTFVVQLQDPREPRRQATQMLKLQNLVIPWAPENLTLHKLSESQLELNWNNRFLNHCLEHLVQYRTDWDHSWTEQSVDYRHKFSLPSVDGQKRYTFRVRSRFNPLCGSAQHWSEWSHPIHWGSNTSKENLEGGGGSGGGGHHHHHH
Description: (§4) IL-2 variants binding affinity to IL-2 receptor were detected by SPR using Biacore 8K. For IL-2Rα binding assay, each variant was captured on anti-human Fc immobilized CM5 sensor chip (cytiva). W3XX115-hPro1.ECD.His at different concentrations were injected over the sensor chip at a flow rate of 30 uL/min for an association phase of 60 s, followed by 90 s dissociation. The chip was then regenerated by 10 mM Glycine-HCl pH1.5 after each binding cycle. For IL-2Rγ binding assay, IL-2 variants were mixed with W369-hPro2.ECD.His as 1:1 before assay, were detected by SPR using Biacore 8K. W3XX115-hPro1.ECD.His was captured on anti-His immobilized CM5 sensor chip (cytiva). The mixture were injected over the sensor chip as described above. The sensorgrams of blank surface and buffer channel were subtracted from the test sensorgrams. The experimental data was fitted by steady state affinity model. Molecular weight of W3XX115-hPro1.ECD.His or W369-hPro1.ECD.His was used to calculate the molar concentration of analyte.
(§5) For T3U0.E44-1 and T2U0.E44-33, no binding to IL-2Rα was detected.

[5] = molecular target: T1, Human IL-2Rβ/γ (intermediate affinity …); assay: cell-based or functional assay
[6] = molecular target: T1, Human IL-2Rβ/γ (intermediate affinity …); assay: FACS, HH cells; EC50 fold vs T2U0.E44-1; remark: listed apart in the source
Description: as §2, §3

[7] = molecular target: T3, W3XX115-hPro1.ECD.His, IL2Rα ECD (Homo sapiens (Human), UniProt P01589 22-213); assay: SPR Biacore 8K; variant captured on anti-human Fc chip, IL-2Rα ECD-His injected
T3 construct: Entry includes the C-terminal 6xHis tag; also called CD25
T3 sequence: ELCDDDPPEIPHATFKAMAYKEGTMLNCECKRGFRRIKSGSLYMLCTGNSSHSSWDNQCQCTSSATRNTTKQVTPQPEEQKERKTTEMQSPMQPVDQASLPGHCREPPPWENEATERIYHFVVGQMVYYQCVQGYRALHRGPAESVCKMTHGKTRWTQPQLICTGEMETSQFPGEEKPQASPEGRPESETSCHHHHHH
Description: as §4, §5

[8] = molecular target: T4, W369-hPro2.ECD.His, IL2Rβ ECD (human, UniProt P14784 27-239); assay: SPR Biacore 8K; set-up for IL-2Rβ not described
T4 construct: Entry includes linker and C-terminal 6xHis tag; also called CD122
T4 sequence: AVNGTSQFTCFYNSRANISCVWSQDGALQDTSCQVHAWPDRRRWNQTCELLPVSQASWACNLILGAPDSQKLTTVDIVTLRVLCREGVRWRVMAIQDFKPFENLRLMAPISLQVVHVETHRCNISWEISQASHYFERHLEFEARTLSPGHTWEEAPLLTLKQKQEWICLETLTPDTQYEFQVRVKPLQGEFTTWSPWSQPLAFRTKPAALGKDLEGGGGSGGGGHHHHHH

[9] = molecular target: T1, Human IL-2Rβ/γ (intermediate affinity …); assay: cell-based or functional assay; remark: listed apart in the source

B1: W3XX115-T3U0.E44-1.uIgG4V322 (Fc fusion)
chain: APTSSSTKKTQLQLEHLLLDLQMILNGINNYKNPKLTRMLTAKFAMPKKATELKHLQCLEEELKPLEEVLNGAQSKNFHLRPRDLISNINVIVLELKGSETTFMCEYADETATIVEFLNRWITFCQSIISTLTESKYGPPCPPCPAPEAAGGPSVFLFPPKPKDTLMISRTPEVTCVVVDVSQEDPEVQFNWYVDGVEVHNAKTKPREEQFNSTYRVVSVLTVLHQDWLNGKEYKCKVSNKGLPSSIEKTISKAKGQPREPQVYTLPPCQEEMTKNQVSLWCLVKGFYPSDIAVEWESNGQPENNYKTTPPVLDSDGSFFLYSRLTVDKSRWQEGNVFSCSVMHEALHNHYTQKSLSLSLG
heavy: EIQLQQSGPELVKPGASVKVSCKASGYSFTDYNMYWVKQSHGESLEWIGYIDPYNGGTRYNQKFKGKATLTVDKSSSTAFMHLNSLTSEDSAVYYCARNGHWDGAWFAYWGQGTLVTVSAASTKGPSVFPLAPCSRSTSESTAALGCLVKDYFPEPVTVSWNSGALTSGVHTFPAVLQSSGLYSLSSVVTVPSSSLGTKTYTCNVDHKPSNTKVDKRVESKYGPPCPPCPAPEAAGGPSVFLFPPKPKDTLMISRTPEVTCVVVDVSQEDPEVQFNWYVDGVEVHNAKTKPREEQFNSTYRVVSVLTVLHQDWLNGKEYKCKVSNKGLPSSIEKTISKAKGQPREPQVCTLPPSQEEMTKNQVSLSCAVKGFYPSDIAVEWESNGQPENNYKTTPPVLDSDGSFFLVSRLTVDKSRWQEGNVFSCSVMHEALHNHYTQKSLSLSLG
light: DIQMNQSPSSLSASLGDTITITCHASQNINVWLSWYQQKPGNIPKLLIYKASNLHTGVPSRFSGSRSGTGFTLTISSLQPEDIATYYCHQGQSYPFTFGSGTKLEIKRTVAAPSVFIFPPSDEQLKSGTASVVCLLNNFYPREAKVQWKVDNALQSGNSQESVTEQDSKDSTYSLSSTLTLSKADYEKHKVYACEVTHQGLSSPVTKSFNRGEC
notes: E44 format, IgG4 FALA; also called non-α IL-2
EC50 [1]: 64.1 nM
EC50 [2]: 29.3 nM
Affinity reduction [3]: 1.3 fold
binding result [4]: binds
Potency EC50, STAT5 phosphorylation in CD8+ T (column headed Human Treg) [5]: 11.7 nM
Potency reduction, CD8+ T (column headed Human Treg) [5]: 1 fold
Affinity reduction [6]: 0.9 fold
binding result [7]: no binding
Kd [8]: 2260 nM
Human CD8+ T Potency EC50 (STAT5 phosphorylation) [9]: 7.87 nM
Human CD8+ T Potency reduction [9]: 2.2 fold
